# US8361965B2, “Recombinant chimeric protein of neutrophil inhibitory factor and hirugen, and pharmaceutical composition thereof” (Lunan Pharmaceutical Group Corporation, priority 2008, dated 2013)
# Values joined by “and” are separate entries in the source; they are usually repeats but may differ in a detail not shown here. Equal entries are not always repeated. Where two headings read alike, the source gives them in different places.
# B1: TNHH: recombinant chimeric protein of neutrophil inhibitory factor and hirugen, Met-NIF-GGGGG-FPRPGSGG-Hirugen (SEQ ID NO: 3), expressed in E. coli (protein)
# chain: MNEHNLRCPQNGTEMPGFNDSIRLQFLAMHNGYRSKLALGHISITEESESDDDDDFGFLPDFAPRASKMRYLEYDCEAEKSAYMSARNCSDSSSPPEGYDENKYIFENSNNISEAALKAMISWAKEAFNLNKTKEGEGVLYRSNHDISNFANLAWDAREKFGCAVVNCPLGEIDDETNHDGETYATTIHVVCHYPKINKTEGQPIYKVGTPCDDCSEYTKKADNTTSADPVCIPDDGVCFIGSKADYDSKEFYRFRELGGGGGFPRPGSGGNGDFEEIPEEYL
# modifications: N-terminal Met
# What was measured:
# leukocyte adhesion = test: anti-leukocyte adhesion activity, in vitro comparative analysis; format: cell-based
# [1] = test system: focal cerebral ischemia-reperfusion injury in rats; format: in vivo, Sprague-Dawley (SD) rats
# blood coagulation system = test: effects on blood coagulation system of New Zealand rabbits in vitro (APTT, PT, TT); format: biochemical, New Zealand rabbit; design: PT: unit not given beside the values; APTT / TT: unit not given here
# Method: Medicaments were diluted to the following concentrations for use: TNHH: 3.0 mg/ml; 1.0 mg/ml; 333 μg/ml; bivalrudin: 600 μg/ml; 200 μg/ml; 67 μg/ml; Hirudin: 660 μg/ml; 220 μg/ml; 73 μg/ml.
# The blood was sampled from six New Zealand rabbits (10×1.8 ml for each one) from marginal ear vein and added into 10 anticoagulation tubes, respectively. 3.2% sodium citrate (9:1) was added for anticoagulation.
# 20 μl anticoagulated blood was taken from each tube, followed by the addition of 20 μl above diluted medicaments for each tube. 20 μl physiological saline was added into the control tube. Samples were mixed thoroughly and centrifuged at 3000 rpm/min for 3 min, and plasma was send to Department of Clinical Laboratory, Southwest Hospital for determining blood coagulation indexes (APTT, TT and PT) with a full automatic coagulation analyzer and the difference before and after administration was obtained by comparison.
# [2] = M-1, TNHH 2.25 mg/kg i.v. (middle dose)
# [3] = M-1, TNHH 6.75 mg/kg i.v. (high dose)
# [4] = M-2, TNHH 2.25 mg/kg i.v. (middle dose)
# [5] = M-2, TNHH 6.75 mg/kg i.v. (high dose)
# [6] = TNHH 3.33 μg/ml in rabbit blood
# [7] = TNHH 10.00 μg/ml in rabbit blood
# [8] = TNHH 30.00 μg/ml in rabbit blood
molecule,measurement,setting,value
B1,titer against leukocyte adhesion,leukocyte adhesion; TNHH 1.0 mg/ml,720 unit/ml
same,anti-leukocyte adhesion activity,leukocyte adhesion; in vitro,750 Unit/mg
same,"Cerebral infarction volume (%), based on the total volume of the brain","[1]; M-1 (occlusion 1 h, reperfusion 48 h), TNHH 0.75 mg/kg i.v. (low dose)",19.93±12.40%
same,nervous symptom score,"[1]; M-1 (occlusion 1 h, reperfusion 48 h), TNHH 0.75 mg/kg i.v., 2 h",1.46 ± 0.58
same,"Decrease in percentage (%), compared with corresponding model group","[1]; M-1, TNHH 0.75 mg/kg i.v. (low dose)",10.54%
same,nervous symptom score,"[1]; M-1, TNHH 0.75 mg/kg i.v., 6 h",1.42 ± 0.60
same,nervous symptom score,"[1]; M-1, TNHH 0.75 mg/kg i.v., 12 h",1.42 ± 0.60
same,nervous symptom score,"[1]; M-1, TNHH 0.75 mg/kg i.v., 24 h",1.40 ± 0.43
same,nervous symptom score,"[1]; M-1, TNHH 0.75 mg/kg i.v., 48 h",1.36 ± 0.62
same,"Cerebral infarction volume (%), based on the total volume of the brain",[1]; [2],19.41±11.74%
same,"Decrease in percentage (%), compared with corresponding model group",[1]; [2],12.88%
same,nervous symptom score,"[1]; M-1, TNHH 2.25 mg/kg i.v., 2 h",1.47 ± 0.92
same,nervous symptom score,"[1]; M-1, TNHH 2.25 mg/kg i.v., 6 h",1.47 ± 0.92
same,nervous symptom score,"[1]; M-1, TNHH 2.25 mg/kg i.v., 12 h",1.37 ± 0.92
same,nervous symptom score,"[1]; M-1, TNHH 2.25 mg/kg i.v., 24 h",1.38 ± 0.41
same,nervous symptom score,"[1]; M-1, TNHH 2.25 mg/kg i.v., 48 h",1.30 ± 0.76
same,"Cerebral infarction volume (%), based on the total volume of the brain",[1]; [3],12.89±8.94%
same,"Decrease in percentage (%), compared with corresponding model group",[1]; [3],42.14% and 42.15** %
same,nervous symptom score,"[1]; M-1, TNHH 6.75 mg/kg i.v., 2 h",1.50 ± 0.58
same,nervous symptom score,"[1]; M-1, TNHH 6.75 mg/kg i.v., 6 h",1.50 ± 0.68
same,nervous symptom score,"[1]; M-1, TNHH 6.75 mg/kg i.v., 12 h",1.39 ± 0.65
same,nervous symptom score,"[1]; M-1, TNHH 6.75 mg/kg i.v., 24 h",1.20 ± 0.36
same,nervous symptom score,"[1]; M-1, TNHH 6.75 mg/kg i.v., 48 h",1.00 ± 0.42
same,"Cerebral infarction volume (%), based on the total volume of the brain","[1]; M-2 (occlusion 2 h, reperfusion 48 h), TNHH 0.75 mg/kg i.v. (low dose)",27.52±17.63% and 27.52 ± 7.63%
same,nervous symptom score,"[1]; M-2 (occlusion 2 h, reperfusion 48 h), TNHH 0.75 mg/kg i.v., 2 h",1.94 ± 0.56
same,"Decrease in percentage (%), compared with corresponding model group","[1]; M-2, TNHH 0.75 mg/kg i.v. (low dose)",3.63%
same,nervous symptom score,"[1]; M-2, TNHH 0.75 mg/kg i.v., 6 h",1.94 ± 0.56
same,nervous symptom score,"[1]; M-2, TNHH 0.75 mg/kg i.v., 12 h",1.94 ± 0.73
same,nervous symptom score,"[1]; M-2, TNHH 0.75 mg/kg i.v., 24 h",1.88 ± 0.64
same,nervous symptom score,"[1]; M-2, TNHH 0.75 mg/kg i.v., 48 h",1.86 ± 0.77
same,"Cerebral infarction volume (%), based on the total volume of the brain",[1]; [4],26.07±8.06%
same,"Decrease in percentage (%), compared with corresponding model group",[1]; [4],7.42%
same,nervous symptom score,"[1]; M-2, TNHH 2.25 mg/kg i.v., 2 h",1.81 ± 0.92
same,nervous symptom score,"[1]; M-2, TNHH 2.25 mg/kg i.v., 6 h",1.80 ± 0.92
same,nervous symptom score,"[1]; M-2, TNHH 2.25 mg/kg i.v., 12 h",1.79 ± 0.92
same,nervous symptom score,"[1]; M-2, TNHH 2.25 mg/kg i.v., 24 h",1.68 ± 0.41
same,nervous symptom score,"[1]; M-2, TNHH 2.25 mg/kg i.v., 48 h",1.67 ± 0.76
same,"Cerebral infarction volume (%), based on the total volume of the brain",[1]; [5],19.72±8.90% and 19.72 ± 5.90%
same,"Decrease in percentage (%), compared with corresponding model group",[1]; [5],29.97%
same,nervous symptom score,"[1]; M-2, TNHH 6.75 mg/kg i.v., 2 h",1.75 ± 0.52
same,nervous symptom score,"[1]; M-2, TNHH 6.75 mg/kg i.v., 6 h",1.75 ± 0.27
same,nervous symptom score,"[1]; M-2, TNHH 6.75 mg/kg i.v., 12 h",1.50 ± 0.45
same,nervous symptom score,"[1]; M-2, TNHH 6.75 mg/kg i.v., 24 h",1.37 ± 0.52
same,nervous symptom score,"[1]; M-2, TNHH 6.75 mg/kg i.v., 48 h",1.22 ± 0.38
same,APTT,blood coagulation system; [6],33.73 ± 6.35
same,PT,blood coagulation system; [6],7.08 ± 0.28
same,TT,blood coagulation system; [6],17.13 ± 1.46
same,APTT,blood coagulation system; [7],31.87 ± 4.46
same,PT,blood coagulation system; [7],7.15 ± 0.24
same,TT,blood coagulation system; [7],20.43 ± 1.59
same,APTT,blood coagulation system; [8],38.08 ± 5.53
same,PT,blood coagulation system; [8],7.27 ± 0.38
same,TT,blood coagulation system; [8],30.00 ± 4.81
